Here are results for 1 molecule from patent US20200140851A1 (Scripps Research, published 2020).

In the experiment the target is T1, mouse vimentin (VIM from wild-type C57BL/6J mouse bone marrow lysates) (mouse, UniProt P20152 2-466).
T1 construct: Endogenous protein in bone marrow lysate, denatured for SDS/PAGE and Western blot
As to the kind of experiment: Western blot of bone marrow lysate. How it is done:
To identify the protein recognized by the B1 antibody, antibodies were produced recombinantly in Expi293F cells. Purified B1 antibody (at a concentration of about 5-10 μg/ml) was incubated with human CD34⁺ cells, and immune complexes from cellular lysates were captured on a protein A/G column. Proteins that reacted with the antibody were identified by silver staining of SDS gels and their identity determined by mass spectrometry (MS). Three candidate proteins were identified above the background threshold (FIG. 5A). Vimentin (VIM) was one of the top hits and was confirmed to be B1 target antigen of B1 Ab by Western blotting. […] Also, VIM expression was found in human CD34⁺ cells by immunofluorescence cytochemistry using B1 or commercial VIM antibodies (FIG. 5C). The amino acid sequence identity between mouse and human VIM is greater than 97%.
Western blot: Cells were washed with PBS and then lysed in lysis buffer (50 mM Hlepes, pH 7.2, 150 mM NaCl, 50 mM NaF, 1 mM Na3VO₄, 10% glycerol, 1% Triton X-100). The lysates were then centrifuged at 12,000×g for 15 min at 4° C. The proteins were denatured in Laemmli sample buffer (5 min at 95° C.), separated by SDS/PAGE, and transferred to nitrocellulose membranes using the iBlot blotting system (Invitrogen). […]

T1 sequence (P20152 2-466 limits assumed): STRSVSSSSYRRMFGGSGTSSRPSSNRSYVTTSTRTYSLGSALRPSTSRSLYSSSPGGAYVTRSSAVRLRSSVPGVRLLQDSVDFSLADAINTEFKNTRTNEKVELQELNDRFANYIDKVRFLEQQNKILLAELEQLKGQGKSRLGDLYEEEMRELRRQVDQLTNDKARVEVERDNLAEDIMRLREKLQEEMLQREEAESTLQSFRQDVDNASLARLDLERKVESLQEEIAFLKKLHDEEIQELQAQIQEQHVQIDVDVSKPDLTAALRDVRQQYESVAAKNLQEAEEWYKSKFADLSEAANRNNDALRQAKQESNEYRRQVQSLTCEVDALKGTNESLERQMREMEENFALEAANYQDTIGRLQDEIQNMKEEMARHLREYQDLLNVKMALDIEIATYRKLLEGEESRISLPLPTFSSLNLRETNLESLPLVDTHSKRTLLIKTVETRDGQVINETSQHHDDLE

B1: B1 antibody (Fc fusion)
scFv: MAQVQLLESGGGLVQPGGSLTLACAASGFNFNNYNMNWVRQAPGRGLEWVAFISSAADTVHYADSVEGRFTISRDNAKNSLYLHMNSLRDEDTAVYYCARQLLYWGQGTLVTVSSGGGGGSQAVLTQPSSLSASPGASVSLTCTLRSGINVGAYRIYWYQQKPGSPPQFLLRYKSDSDKQQGSGVPSRFSGSRDASANAGILLISWLRSEDEADYYCAIWHSSAWVFGGGTQLTVLG
notes: also called B1 Ab; B1Ab; not shown: Fc tag of the purified ScFv-Fc fusion protein
Regarding B1, the binding result is listed as “binds”.
